The target in data set [1] is T1, NgoS (MutS) (Neisseria gonorrhoeae, UniProt Q5F5J4 1-814).
T1 sequence: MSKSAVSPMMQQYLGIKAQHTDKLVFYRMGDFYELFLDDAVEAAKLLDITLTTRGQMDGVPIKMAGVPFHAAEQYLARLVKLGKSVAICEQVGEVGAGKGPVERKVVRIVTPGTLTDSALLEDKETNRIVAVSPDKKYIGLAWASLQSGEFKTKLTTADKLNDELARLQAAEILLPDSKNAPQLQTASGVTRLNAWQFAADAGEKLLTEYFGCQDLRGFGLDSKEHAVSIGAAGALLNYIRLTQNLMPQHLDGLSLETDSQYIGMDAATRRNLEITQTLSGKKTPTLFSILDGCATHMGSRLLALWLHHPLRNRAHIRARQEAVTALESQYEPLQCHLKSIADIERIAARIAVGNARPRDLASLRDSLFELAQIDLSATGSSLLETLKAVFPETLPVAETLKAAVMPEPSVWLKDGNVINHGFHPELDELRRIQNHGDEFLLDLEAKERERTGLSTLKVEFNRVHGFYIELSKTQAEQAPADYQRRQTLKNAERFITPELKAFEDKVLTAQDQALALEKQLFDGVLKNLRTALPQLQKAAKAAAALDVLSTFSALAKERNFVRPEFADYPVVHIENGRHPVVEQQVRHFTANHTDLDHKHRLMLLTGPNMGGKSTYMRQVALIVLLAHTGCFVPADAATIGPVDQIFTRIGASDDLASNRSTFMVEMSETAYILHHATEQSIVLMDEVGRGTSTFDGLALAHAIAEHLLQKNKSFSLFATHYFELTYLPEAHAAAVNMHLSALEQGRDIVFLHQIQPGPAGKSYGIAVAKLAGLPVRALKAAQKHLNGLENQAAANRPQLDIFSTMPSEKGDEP
Briefly: DLS.

The target of data set [2] is T1, NgoS (MutS). Description: fluorescence anisotropy.
A further data set deals with T2, NgoS E687A (Neisseria gonorrhoeae, UniProt Q5F5J4 1-814, E687A).
T2 sequence: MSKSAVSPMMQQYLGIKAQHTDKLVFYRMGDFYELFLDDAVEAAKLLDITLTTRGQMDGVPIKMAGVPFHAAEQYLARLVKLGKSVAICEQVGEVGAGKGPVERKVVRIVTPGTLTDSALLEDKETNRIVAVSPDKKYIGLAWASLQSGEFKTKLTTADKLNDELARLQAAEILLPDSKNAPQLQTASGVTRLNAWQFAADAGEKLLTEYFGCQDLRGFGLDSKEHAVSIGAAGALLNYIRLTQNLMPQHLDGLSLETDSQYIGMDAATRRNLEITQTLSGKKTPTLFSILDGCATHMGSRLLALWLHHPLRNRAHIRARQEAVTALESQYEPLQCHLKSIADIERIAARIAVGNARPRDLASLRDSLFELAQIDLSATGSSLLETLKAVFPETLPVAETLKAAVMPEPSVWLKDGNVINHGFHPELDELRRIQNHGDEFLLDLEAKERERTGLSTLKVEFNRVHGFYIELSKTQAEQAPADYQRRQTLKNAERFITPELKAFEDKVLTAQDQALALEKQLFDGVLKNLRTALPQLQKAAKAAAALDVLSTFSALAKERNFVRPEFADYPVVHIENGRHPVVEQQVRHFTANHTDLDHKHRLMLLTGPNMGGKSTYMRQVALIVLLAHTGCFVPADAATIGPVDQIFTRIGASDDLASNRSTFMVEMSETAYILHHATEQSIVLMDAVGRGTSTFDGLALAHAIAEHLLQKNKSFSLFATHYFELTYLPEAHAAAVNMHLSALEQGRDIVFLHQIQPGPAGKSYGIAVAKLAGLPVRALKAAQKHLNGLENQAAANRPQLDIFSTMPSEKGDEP
Briefly: fluorescence anisotropy.

These results are taken from paper PMC5758902.

B1: 30mer homoduplex (dsDNA)
DNA 1: AGCTGCCAGGCACCAGTGTCAGCGTCCTAT
DNA 2: ATAGGACGCTGACACTGGTGCCTGGCAGCT
B1: in the data set with NgoS (MutS) [1], the binding result is on record as “binds”.

B2: 30mer G:T heteroduplex (dsDNA)
DNA 1: AGCTGCCAGGCACCAGTGTCAGCGTCCTAT
DNA 2: ATAGGACGCTGACACTGGTGCTTGGCAGCT
With B2, the binding result in the data set with NgoS (MutS) [1] is on record as “binds”.

B3: 31mer G:T heteroduplex (dsDNA)
DNA 1: GCGATGTTGCTGACGCTGGTGCCTGGCAGCT
DNA 2: AGCTGCCAGGCACCAGTGTCAGCAACATCGC
For the molecule B3, the binding result with NgoS (MutS) [2] and with NgoS E687A was “binds” in each case.
